Measured values: patent US10654915B2, “Antibodies useful in passive influenza immunization” (priority 2011, dated 2020)
Like-named read-outs stand apart in the source and are kept apart here.

How the values were obtained:
[1] = test system: H1N1 Influenza A/Ca/04/09; experiment: Comparison to treatment with Tamiflu in infected mice; format: in vivo
[2] = biological target: H3N2 A/New York/55/2004 HA; experiment: Affinity by FortéBio; format: binding, influenza A
[3] = test system: H3N2 A/Perth/16/2009; experiment: MDCK monolayer microneutralization assay; format: cell-based, influenza A
[4] = test system: A/Ca/04/09 (H1N1); experiment: In vivo efficacy, treatment at Day 2; design: species or system mice; settings: IP at Day 2, 10 mg/kg (mixture 10 mg/kg each), FIGS. 6A, 6C
[5] = test system: H3; experiment: Binding by MAB579 in vitro (FIG. 2); design: species or system influenza A; settings: H3, FIG. 2
[6] = biological target: H3N2 A/Perth/16/2009 HA; format: binding, influenza A
[7] = biological target: H3N2 A/Hong Kong/8/68 HA; format: binding, influenza A
[8] = test system: H7N3 A/Canada/rv444/04; format: cell-based, influenza A
[9] = biological target: H7N7 A/Netherlands/219/03 HA; format: binding, influenza A
[10] = test system: H7N3: A/Red Knot/NJ/1523470/06; design: species or system mice; settings: mouse, in vivo, ip, 10 mg/kg
[11] = test system: H7 A/Ruddy Turnstone/A106-892; experiment: MDCK monolayer microneutralization assay; format: cell-based, influenza A; settings: H7 A/Ruddy Turnstone/A106-892, bird virus
[12] = test system: H10 (H10N7) A/Northern Shoveler; format: cell-based, influenza A
[13] = test system: H7; experiment: Binding by MAB579 in vitro (FIG. 2); design: species or system influenza A; settings: H7, FIG. 2
[14] = biological target: HA of clades spanning Group 2; experiment: Standard FortéBio assay (FIG. 3B); format: binding, influenza A; settings: Group 2, FIG. 3B
[15] = test system: H3N2 A/New York/55/2004; experiment: MDCK monolayer microneutralization assay; format: cell-based, influenza A
[16] = test system: H7 A/Redknot/NJ/1523470/06; experiment: MDCK monolayer microneutralization assay; format: cell-based, influenza A; settings: H7 A/Redknot/NJ/1523470/06, bird virus
[17] = test system: H1; experiment: Binding by MAB579 in vitro (FIG. 2); design: species or system influenza A; settings: H1, FIG. 2
[18] = test system: H3 A/SW/MN/02719; format: cell-based, influenza A
[19] = test system: H7N7 A/Netherlands/219/03; format: cell-based, influenza A
[20] = test system: H3N2 A/Wisconsin/67/2005; experiment: MDCK monolayer microneutralization assay; format: cell-based, influenza A
[21] = test system: H3 A/Udorn/307/1976; experiment: MDCK monolayer microneutralization assay; format: cell-based, influenza A
[22] = test system: H7 A/Sanderling/A106-125; experiment: MDCK monolayer microneutralization assay; format: cell-based, influenza A; settings: H7 A/Sanderling/A106-125, bird virus
[23] = test system: H3N2: A/Perth/16/09; design: species or system mice; settings: mouse, in vivo, ip, 10 mg/kg
[24] = test system: Philippines 2/82; design: species or system mice; settings: mouse, in vivo
[25] = test system: H3N2 A/Hong Kong/8/68 (A/HongKong/68); experiment: MDCK monolayer microneutralization assay; format: cell-based, influenza A
[26] = test system: H3 A/Phillipines/2/82 x-79; experiment: MDCK monolayer microneutralization assay; format: cell-based, influenza A
[27] = test system: H4 (H4N4) A/Bufflehead; format: cell-based, influenza A
[28] = biological target: H7N3 A/Canada/rv444/04 HA; format: binding, influenza A
[29] = test system: H9N2; format: cell-based, influenza A
[30] = biological target: H3 HA; format: binding, influenza A; settings: read-out: affinity
[31] = test system: H1N1; format: cell-based, influenza A
[32] = test system: H5N1; format: cell-based, influenza A
[33] = biological target: H5 HA; format: binding, influenza A; settings: read-out: affinity
[34] = biological target: H1 HA; format: binding, influenza A; settings: read-out: affinity
[35] = test system: H7N3; format: cell-based, influenza A

For `CCOC(=O)C1=C[C@@H](OC(CC)CC)[C@H](NC(C)=O)[C@@H](N)C1` [Tamiflu, oseltamivir phosphate, reference compound], the survival ([1]; 10 mice per group, treatment from Day +1, to Day 14) was “all but two mice were dead before eight days post infection”, the “weight attained, of the original weight” value ([1]; by Day 14) was 92% and the “day at which decline in weight was reversed” value ([1]; treatment from Day +1) was ≤ 6 days.

B1: MAB579 (antibody, V domains shown)
VH: QVQLVQSGAEVKKPGASVKVSCKTSGYTFTAYTIHWVRQAPGQRLEWMGWINAGNGHTKYSQRFKGRVTITRDTSARTTYMELRSLTSEDTALYFCARGPETYYYDKTNWLNSHPDEYFQHWGHGTQVTVSS
VL: DIQMTQSPSTLSASVGDRVTITCRASQTINNYLAWYQQKPGKAPKLLIYKASSLESGVPSRFSGSGSGTEFTLTISSLQPDDFATYYCQEYNNDSPLTFGGGTKVEIK
modifications: CHAIN (1)...(132) MAB579 heavy chain sequence of variable domain; DOMAIN (31)...(35) CDR1; DOMAIN (50)...(67) CDR2; DOMAIN (99)...(121) CDR3; CHAIN (1)...(108) MAB579 light chain sequence of variable domain; DOMAIN (24)...(34) CDR1; DOMAIN (50)...(57) CDR2; DOMAIN (89)...(98) CDR3
B1 was tested, and the Kd [2] was 0.2 nM, the “IC50” value ([3]; H3 A/Perth/16/2009) was 0.2 µg/mL and the “Potency Difference” value ([3]; MAB579 vs CR8020 EC50, H3N2 A/Perth/16/2009) was 40x. For the same molecule, the “EC50” value ([3]; in vitro neutralization, H3N2 A/Perth/16/2009) was 0.05 µg/mL, the protection / survival [4] was “no survivors after 10 days” and the “binding affinity (in words)” value [5] was “tightly bound”. For the same molecule, the Kd ([6]; read-out: Affinity by FortéBio) was 0.7 nM, the Kd ([6]; read-out: KD) was 0.8 nM and the Kd [7] was 0.2 nM. The “EC50” value [8] was 0.5 µg/mL, the “IC50” value [8] was 1.6 µg/mL and the Kd ([9]; read-out: Affinity by FortéBio) was 0.4 nM. The Kd ([9]; read-out: KD) was 0.4 nM, the “therapeutic effectiveness (survival)” value [10] was “essentially fully effective” and the “IC50” value [11] was >20 µg/mL. The “EC50” value [12] was 0.8 µg/mL, the “IC50” value [12] was 0.8 µg/mL and the “binding affinity (in words)” value [13] was “tightly bound”. The “affinity across clades (in words)” value [14] was “sub-nM affinity”, the “IC50” value ([15]; H3 A/New York/55/2004*) was 1.1 µg/mL and the “Potency Difference” value ([15]; MAB579 vs CR8020 EC50, H3N2 A/New York/55/2004) was 5x. The “EC50” value ([15]; in vitro neutralization, H3N2 A/New York/55/2004) was 2.0 µg/mL, the “IC50” value [16] was >20 µg/mL and the “binding affinity (in words)” value [17] was “negligible binding affinity”. The “IC50” value [18] was 3.9 µg/mL, the “EC50” value [19] was 0.7 µg/mL and the “IC50” value [19] was 0.6 µg/mL. For the same molecule, the “Potency Difference” value [19] was 20x, the “IC50” value ([20]; H3 A/Wisconsin/67/2005) was 1.0 µg/mL and the “Potency Difference” value ([20]; MAB579 vs CR8020 EC50, H3N2 A/Wisconsin/67/2005) was 3x. The “EC50” value ([20]; in vitro neutralization, H3N2 A/Wisconsin/67/2005) was 1.0 µg/mL, the “IC50” value [21] was 1.9 µg/mL and the “IC50” value [22] was >20 µg/mL. For the same molecule, the “therapeutic effectiveness (survival)” value [23] was “essentially fully effective”, the protection / survival [24] was “effective” and the “IC50” value ([25]; H3 A/HongKong/68) was 2.8 µg/mL. The “Potency Difference” value ([25]; MAB579 vs CR8020 EC50, H3N2 A/Hong Kong/8/68) was 3x, the “EC50” value ([25]; in vitro neutralization, H3N2 A/Hong Kong/8/68) was 2.0 µg/mL and the “IC50” value [26] was 0.9 µg/mL. The “EC50” value [27] was 15.0 µg/mL, the “IC50” value [27] was 15.5 µg/mL and the “Potency Difference” value [27] was 3x. The Kd [28] was 0.6 nM.

B2: MAB8 (antibody)
VH: EVQLVESGGGLVKPGGSLRLSCAASGFTFSTYTMSWVRQAPGQGLEWVSSITRTSSNIYYADSVEGRFTISRDNAKNSLYLQMHSLRVEDTAVYYCARISGVVGPVPFDYWGQGTLITVSS
light: DIQMTQSPSSLSASVGDRVTITCRASQTISKYLNWYQQKPGRAPKLLIYSASSLQSGVPSRFTGSGSGTDFTLTITSLQPEDFATYYCQQSYRPSQITFGPGTKVDIK
modifications: CHAIN (1)...(121) MAB8 heavy chain sequence of variable domain; CHAIN (1)...(108) MAB8 light chain sequence
B2 was tested, and the “neutralization of infection (in words)” value [29] was “does not neutralize infection”, the Kd [30] was 16 nM and the “neutralization of infection (in words)” value [31] was “does not neutralize infection”. The “neutralization of infection (in words)” value [32] was “does not neutralize infection”, the Kd [33] was 0.2 nM and the Kd [34] was 9 nM. The “neutralization of infection (in words)” value [35] was “does not neutralize infection”.
